Experimental data taken from the supplement of paper PMC10065799, “High-throughput profiling of sequence recognition by tyrosine kinases and SH2 domains using bacterial peptide display” (eLife, 2023).

Key:
[1] = tested on: AncSZ; assay: phosphorylation enrichment, bacterial display (enrichment ratio); higher = better substrate or ligand; peptides without Tyr show the background
[2] = molecular target: EPHB1 (UniProt P54762); assay: as above
[3] = molecular target: EPHB2 (UniProt P29323); assay: as above
[4] = molecular target: FGFR1 (UniProt P11362); assay: as above
[5] = molecular target: FGFR3 (UniProt P22607); assay: as above
[6] = tested on: Fer (mouse); assay: as above
[7] = molecular target: Fes (UniProt P07332); assay: as above
[8] = molecular target: Fyn (UniProt P06241); assay: as above
[9] = molecular target: Hck (UniProt P08631); assay: as above
[10] = molecular target: Jak2 (UniProt O60674); assay: as above
[11] = molecular target: MERTK (UniProt Q12866); assay: as above
[12] = tested on: c-Abl (mouse); assay: as above
[13] = tested on: c-Src; assay: as above
[14] = molecular target: Grb2 SH2 (UniProt P62993); assay: SH2 binding enrichment of the phosphorylated peptide, bacterial display (enrichment ratio); higher = better substrate or ligand; peptides without Tyr show the background
[15] = molecular target: SHP2-C SH2; assay: as above
[16] = molecular target: c-Src SH2; assay: as above
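For SH2 binding enrichment of the phosphorylated peptide, bacterial display in this document: peptide library displayed on the E. coli surface as eCPX fusions, selected cells deep-sequenced, score is each peptide's frequency after selection divided by its frequency in the input.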
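For phosphorylation enrichment, bacterial display in this document: 11-residue human phosphosite peptides and single-mutation variants displayed on the E. coli surface, counted by deep sequencing, each peptide's frequency after selection divided by its frequency in the unselected input library; frequency after pTyr selection over input frequency; kinase dosed for 20-30% of maximal phosphorylation in three min.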

Chain of Hck (P08631 whole entry, looked up): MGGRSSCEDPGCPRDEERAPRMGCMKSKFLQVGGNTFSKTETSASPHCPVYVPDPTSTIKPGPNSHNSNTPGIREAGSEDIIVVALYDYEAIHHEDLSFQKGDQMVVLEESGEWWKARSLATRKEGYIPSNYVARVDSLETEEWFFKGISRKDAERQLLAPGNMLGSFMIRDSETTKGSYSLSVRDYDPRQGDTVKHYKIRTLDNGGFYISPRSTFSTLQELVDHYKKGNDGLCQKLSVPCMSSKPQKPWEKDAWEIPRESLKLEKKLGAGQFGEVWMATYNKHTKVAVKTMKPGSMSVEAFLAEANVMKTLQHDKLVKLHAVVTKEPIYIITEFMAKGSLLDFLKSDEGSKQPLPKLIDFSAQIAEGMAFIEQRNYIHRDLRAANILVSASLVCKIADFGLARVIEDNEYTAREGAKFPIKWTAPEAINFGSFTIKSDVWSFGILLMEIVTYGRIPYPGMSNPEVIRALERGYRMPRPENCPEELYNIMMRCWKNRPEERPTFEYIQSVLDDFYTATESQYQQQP
Chain of MERTK (Q12866 whole entry, looked up): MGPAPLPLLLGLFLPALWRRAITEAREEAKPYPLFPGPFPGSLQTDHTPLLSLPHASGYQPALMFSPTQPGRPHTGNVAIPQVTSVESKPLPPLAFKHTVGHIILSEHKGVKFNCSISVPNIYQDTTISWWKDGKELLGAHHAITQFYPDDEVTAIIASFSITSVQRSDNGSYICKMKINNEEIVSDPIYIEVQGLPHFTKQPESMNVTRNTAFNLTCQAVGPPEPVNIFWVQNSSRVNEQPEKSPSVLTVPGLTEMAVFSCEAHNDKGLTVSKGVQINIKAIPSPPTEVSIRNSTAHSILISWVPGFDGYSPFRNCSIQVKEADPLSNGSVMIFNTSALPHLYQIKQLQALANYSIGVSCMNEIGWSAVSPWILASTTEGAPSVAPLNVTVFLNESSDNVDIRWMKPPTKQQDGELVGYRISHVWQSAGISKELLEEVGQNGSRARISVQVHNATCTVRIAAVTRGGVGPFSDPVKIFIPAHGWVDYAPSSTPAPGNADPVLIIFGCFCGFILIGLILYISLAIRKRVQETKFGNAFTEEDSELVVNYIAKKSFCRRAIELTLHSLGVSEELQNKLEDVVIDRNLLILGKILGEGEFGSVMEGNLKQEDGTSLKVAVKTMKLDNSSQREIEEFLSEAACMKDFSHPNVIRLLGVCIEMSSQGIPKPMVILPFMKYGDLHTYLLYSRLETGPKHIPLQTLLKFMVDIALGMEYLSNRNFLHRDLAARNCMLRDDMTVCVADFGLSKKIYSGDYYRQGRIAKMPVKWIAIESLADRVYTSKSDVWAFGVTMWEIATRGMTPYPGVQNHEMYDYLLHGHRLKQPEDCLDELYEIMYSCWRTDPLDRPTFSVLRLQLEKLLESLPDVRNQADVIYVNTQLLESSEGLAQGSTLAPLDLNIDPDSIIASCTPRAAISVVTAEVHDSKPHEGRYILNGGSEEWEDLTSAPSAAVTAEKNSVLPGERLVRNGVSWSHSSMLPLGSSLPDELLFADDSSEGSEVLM
Chain of Fes (P07332 whole entry, looked up): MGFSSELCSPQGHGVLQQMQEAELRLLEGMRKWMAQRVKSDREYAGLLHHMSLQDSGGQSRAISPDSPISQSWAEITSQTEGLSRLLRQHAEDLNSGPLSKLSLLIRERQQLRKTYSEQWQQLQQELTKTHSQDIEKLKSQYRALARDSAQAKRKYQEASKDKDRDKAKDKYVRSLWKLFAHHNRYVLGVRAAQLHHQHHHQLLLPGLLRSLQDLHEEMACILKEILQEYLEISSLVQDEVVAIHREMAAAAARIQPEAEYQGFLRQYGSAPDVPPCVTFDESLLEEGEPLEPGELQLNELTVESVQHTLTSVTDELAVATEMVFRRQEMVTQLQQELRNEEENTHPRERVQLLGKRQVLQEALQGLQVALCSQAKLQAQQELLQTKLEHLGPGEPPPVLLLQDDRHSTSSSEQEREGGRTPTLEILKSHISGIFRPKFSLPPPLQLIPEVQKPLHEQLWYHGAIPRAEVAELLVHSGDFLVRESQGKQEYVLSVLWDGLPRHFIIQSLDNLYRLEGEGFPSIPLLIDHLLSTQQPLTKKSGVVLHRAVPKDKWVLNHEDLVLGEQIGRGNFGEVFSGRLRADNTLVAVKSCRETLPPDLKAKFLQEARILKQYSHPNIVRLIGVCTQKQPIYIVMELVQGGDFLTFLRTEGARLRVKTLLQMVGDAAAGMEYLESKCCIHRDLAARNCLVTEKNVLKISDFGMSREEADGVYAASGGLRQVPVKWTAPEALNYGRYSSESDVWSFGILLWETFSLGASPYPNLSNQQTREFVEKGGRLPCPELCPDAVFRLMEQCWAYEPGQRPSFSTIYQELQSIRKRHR
Chain of Jak2 (O60674 whole entry, looked up): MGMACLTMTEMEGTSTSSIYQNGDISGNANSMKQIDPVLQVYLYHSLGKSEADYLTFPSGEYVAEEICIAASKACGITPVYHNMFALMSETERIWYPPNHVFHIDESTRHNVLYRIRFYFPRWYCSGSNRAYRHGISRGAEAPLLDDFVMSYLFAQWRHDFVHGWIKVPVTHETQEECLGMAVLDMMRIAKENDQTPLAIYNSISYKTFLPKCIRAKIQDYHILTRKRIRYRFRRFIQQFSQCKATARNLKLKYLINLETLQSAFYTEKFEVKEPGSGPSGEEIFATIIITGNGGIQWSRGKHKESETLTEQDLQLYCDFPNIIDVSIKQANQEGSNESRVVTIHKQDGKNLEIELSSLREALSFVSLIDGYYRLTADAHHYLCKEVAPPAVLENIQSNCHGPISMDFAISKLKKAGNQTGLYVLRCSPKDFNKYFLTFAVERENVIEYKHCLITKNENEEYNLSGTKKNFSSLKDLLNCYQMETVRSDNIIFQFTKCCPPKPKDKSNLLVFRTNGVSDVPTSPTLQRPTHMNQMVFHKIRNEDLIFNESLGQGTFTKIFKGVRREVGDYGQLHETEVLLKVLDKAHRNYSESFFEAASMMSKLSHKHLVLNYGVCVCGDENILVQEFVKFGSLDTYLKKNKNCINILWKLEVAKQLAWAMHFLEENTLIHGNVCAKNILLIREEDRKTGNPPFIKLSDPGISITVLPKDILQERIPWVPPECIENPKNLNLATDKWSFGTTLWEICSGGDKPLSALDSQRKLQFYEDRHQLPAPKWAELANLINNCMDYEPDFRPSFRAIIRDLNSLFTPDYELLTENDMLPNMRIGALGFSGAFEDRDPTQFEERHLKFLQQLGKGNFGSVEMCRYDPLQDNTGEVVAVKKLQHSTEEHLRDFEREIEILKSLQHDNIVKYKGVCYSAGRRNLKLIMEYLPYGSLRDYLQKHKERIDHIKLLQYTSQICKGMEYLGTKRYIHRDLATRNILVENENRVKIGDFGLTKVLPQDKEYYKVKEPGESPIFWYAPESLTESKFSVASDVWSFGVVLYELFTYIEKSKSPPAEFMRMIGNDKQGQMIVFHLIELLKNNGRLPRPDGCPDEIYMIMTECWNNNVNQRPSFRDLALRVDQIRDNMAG
Chain of Fyn (P06241 whole entry, looked up): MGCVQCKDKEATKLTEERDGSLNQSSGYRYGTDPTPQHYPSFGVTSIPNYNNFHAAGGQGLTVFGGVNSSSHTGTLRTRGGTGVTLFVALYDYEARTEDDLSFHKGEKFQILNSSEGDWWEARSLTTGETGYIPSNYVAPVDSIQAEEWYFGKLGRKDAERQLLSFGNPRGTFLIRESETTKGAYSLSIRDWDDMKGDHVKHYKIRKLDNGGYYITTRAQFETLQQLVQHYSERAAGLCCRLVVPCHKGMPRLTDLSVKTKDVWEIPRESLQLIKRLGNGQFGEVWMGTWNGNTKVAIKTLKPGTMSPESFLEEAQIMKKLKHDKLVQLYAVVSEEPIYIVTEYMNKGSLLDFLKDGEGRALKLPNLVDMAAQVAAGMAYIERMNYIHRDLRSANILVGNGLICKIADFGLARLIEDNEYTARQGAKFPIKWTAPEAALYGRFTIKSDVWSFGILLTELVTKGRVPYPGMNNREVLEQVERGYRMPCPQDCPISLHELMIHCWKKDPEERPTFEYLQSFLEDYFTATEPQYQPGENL
Chain of EPHB1 (P54762 whole entry, looked up): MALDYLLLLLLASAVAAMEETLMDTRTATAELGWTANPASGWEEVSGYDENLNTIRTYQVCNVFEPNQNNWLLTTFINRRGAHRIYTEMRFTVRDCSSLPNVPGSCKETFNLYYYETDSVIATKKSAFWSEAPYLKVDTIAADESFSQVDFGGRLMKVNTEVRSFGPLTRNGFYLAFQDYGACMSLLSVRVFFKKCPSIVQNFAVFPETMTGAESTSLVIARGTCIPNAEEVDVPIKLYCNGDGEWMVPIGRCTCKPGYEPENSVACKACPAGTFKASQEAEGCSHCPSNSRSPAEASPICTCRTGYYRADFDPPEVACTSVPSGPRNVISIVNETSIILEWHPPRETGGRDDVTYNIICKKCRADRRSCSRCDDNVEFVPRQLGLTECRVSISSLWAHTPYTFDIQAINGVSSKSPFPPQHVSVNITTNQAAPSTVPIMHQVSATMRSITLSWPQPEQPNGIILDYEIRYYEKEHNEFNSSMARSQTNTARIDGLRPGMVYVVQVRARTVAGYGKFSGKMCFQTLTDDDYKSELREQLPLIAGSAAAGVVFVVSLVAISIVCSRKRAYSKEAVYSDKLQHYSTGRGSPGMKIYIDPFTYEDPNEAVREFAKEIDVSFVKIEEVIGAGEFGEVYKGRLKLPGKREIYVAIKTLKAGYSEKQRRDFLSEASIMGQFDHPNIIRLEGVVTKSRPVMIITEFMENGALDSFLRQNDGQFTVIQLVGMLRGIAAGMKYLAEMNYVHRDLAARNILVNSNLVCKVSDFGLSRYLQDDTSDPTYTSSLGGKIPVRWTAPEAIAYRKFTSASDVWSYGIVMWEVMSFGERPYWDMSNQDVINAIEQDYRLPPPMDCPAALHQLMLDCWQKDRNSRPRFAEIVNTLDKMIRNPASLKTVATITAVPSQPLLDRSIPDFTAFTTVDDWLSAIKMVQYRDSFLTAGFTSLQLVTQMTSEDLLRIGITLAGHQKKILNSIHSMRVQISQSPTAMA

SH2 binding enrichment [14]	SH2 binding enrichment [15]	SH2 binding enrichment [16]	Sequence	phosphorylation enrichment [1]	phosphorylation enrichment [2]	phosphorylation enrichment [3]	phosphorylation enrichment [4]	phosphorylation enrichment [5]	phosphorylation enrichment [6]	phosphorylation enrichment [7]	phosphorylation enrichment [8]	phosphorylation enrichment [9]	phosphorylation enrichment [10]	phosphorylation enrichment [11]	phosphorylation enrichment [12]	phosphorylation enrichment [13]
0.915	0.699	0.619	EDGCIYPGTIA [SMN1_Y109_A111G]	0.947	0.7	0.613	0.553	0.856	0.555	1.25	0.595	0.552	1.04	0.529	0.868	0.567
0.75	0.574	0.462	EEGNPSFSSAR [MCCC2_Y520_Y520S_YF]	0.682	0.418	0.467	0.388	0.623	0.426	0.876	0.42	0.395	0.826	0.459	0.681	0.433
0.868	0.667	0.536	EEGNPYFSGAR [MCCC2_Y520_S523G_YF]	0.938	0.516	0.462	0.521	0.686	0.347	0.945	0.637	0.864	0.802	0.444	0.687	1.37
0.934	2.07	0.66	EEGRVYVYRLS [ITGAE_Y549]	0.904	0.595	0.504	0.496	0.76	0.505	1.11	0.616	0.548	0.997	0.379	0.713	0.698
0.832	0.998	0.34	EFLHKYKGFKI [SYNE1_Y6953_Q6951H_YF]	0.857	0.458	0.264	0.397	0.545	0.379	0.765	0.318	0.435	0.667	0.431	0.697	0.508
0.949	0.723	0.585	EHTTLYSDNST [KANSL1_Y223_N225D]	0.697	0.45	0.433	0.475	0.591	0.661	0.801	0.407	0.561	0.654	0.443	0.512	0.497
1.23	0.838	0.867	EKKQTYGSCRK [LACTB_Y473_R469K]	0.533	0.415	0.356	0.395	0.488	0.351	0.685	0.37	0.391	0.484	0.366	0.581	0.43
0.869	0.937	0.473	EKMWSYTKSAE [GRIA3_Y705_M706T]	0.658	0.426	0.487	0.419	0.529	0.411	0.748	0.425	0.451	0.592	0.44	0.68	0.464
0.761	0.657	0.874	ENRKYYMDLKE [PURA_Y156]	0.733	0.563	0.473	0.474	0.573	0.445	0.912	0.418	0.543	0.734	0.466	0.588	0.331
0.893	0.785	0.399	EREFKYGAHNF [OAT_Y50_YF]	0.516	0.392	0.375	0.368	0.482	0.36	0.608	0.442	0.386	0.483	0.359	0.401	0.388
0.738	0.543	0.485	ESDFPYSSSFE [SRPK2_Y427_T426P_YF]	1.1	0.437	0.502	0.619	0.692	0.531	1.1	0.511	0.47	0.942	0.462	0.642	0.823
0.829	0.455	0.441	ESMNIYLQTSP [NAT1_Y208_T207I]	1.21	0.752	0.697	0.674	0.87	0.635	1.05	0.847	1.05	1.17	0.618	0.812	1.06
0.67	0.775	0.445	ETCLAYMEKRI [TEKT1_Y118_R119M]	1.2	0.591	0.617	0.48	0.814	0.691	1.13	0.517	0.56	1.17	0.406	0.818	0.511

More lines, now with the values behind:

Sequence	SH2 binding enrichment [14]	SH2 binding enrichment [15]	SH2 binding enrichment [16]	phosphorylation enrichment [1]	phosphorylation enrichment [2]	phosphorylation enrichment [3]	phosphorylation enrichment [4]	phosphorylation enrichment [5]	phosphorylation enrichment [6]	phosphorylation enrichment [7]	phosphorylation enrichment [8]	phosphorylation enrichment [9]	phosphorylation enrichment [10]	phosphorylation enrichment [11]	phosphorylation enrichment [12]	phosphorylation enrichment [13]
EEDPEYKKKFR [FAM161A_Y278]	1.14	0.904	0.751	1.1	0.427	0.441	0.66	0.544	0.608	0.99	0.61	0.487	1.01	0.466	0.647	0.642
EFISENCGEII [EZH2_Y641_Y641N]	1.05	0.714	0.62	1.31	0.585	0.57	0.487	0.706	0.478	1.1	0.581	0.495	1.13	0.437	0.71	0.423
EFKKHYGFSLF [ANXA3_Y295_YF]	0.815	0.749	0.622	0.949	0.574	0.509	0.461	0.721	0.561	1.01	0.413	0.507	0.751	0.416	0.642	0.46
EIIPFYGMSSY [FNDC3B_Y175_T179S]	0.855	0.828	6.51	0.877	0.6	0.77	0.489	0.672	0.933	0.914	0.777	0.967	0.748	0.728	0.587	0.616
EIRTQDEAMAS [GFAP_Y242_Y242D]	0.811	0.772	0.575	0.688	0.515	0.42	0.498	0.57	0.353	0.755	0.43	0.443	0.945	0.457	0.489	0.408
EKKKFYDTKIE [CASP5_Y104_YF]	0.636	0.437	0.427	0.772	0.396	0.397	0.342	0.567	0.446	0.933	0.353	0.503	0.883	0.428	0.653	0.6
EKLQKYFRQNP [EHHADH_Y682_YF]	0.871	0.761	0.355	0.802	0.375	0.35	0.358	0.472	0.365	0.742	0.431	0.351	0.549	0.354	0.942	0.408
EKQLLYSENKT [FRK_Y132]	0.976	0.674	0.55	0.732	0.528	0.652	0.456	0.599	1.19	0.919	0.465	0.85	0.638	0.766	0.563	0.616
ELAKFYKLHHI [AK7_Y391_N389K_YF]	0.646	0.747	0.414	0.65	0.547	0.452	0.453	0.531	0.462	0.762	0.566	0.501	0.645	0.536	0.621	0.505
ENFDDYMKDVG [FABP4_Y20_E23D]	0.832	0.729	0.428	1.17	0.635	0.663	0.546	0.764	0.443	1.12	0.564	0.554	1.24	0.52	1.13	0.43
ENGPYYASYPP [GDAP2_Y488_T489A]	0.729	0.773	0.632	1.09	1.64	4.76	2.69	2.01	1.29	0.735	6.13	3.82	0.662	6.92	3.72	5.28
ENPAKYDDIKK [GAPDH_Y255_K251N]	0.702	0.888	1.39	0.915	0.608	0.582	0.519	0.69	0.453	1.04	0.506	0.412	0.829	0.437	0.579	0.485
EPDSLYGCGRG [ATM_Y2019_G2023R]	0.93	0.886	0.559	0.933	0.534	0.45	0.399	0.576	0.574	0.926	2.05	4.04	0.858	0.419	0.885	2.52
EQFELYCEMGS [CBL_Y371_YF]	0.934	0.638	0.46	1.95	3.34	2.66	1.26	1.54	1	1.68	1.43	2.27	1.39	1.58	1.02	1.49
ERPIRYLNHQL [CEP152_Y268_Q265P]	1.18	0.627	0.488	0.504	0.421	0.409	0.383	0.424	0.417	0.591	0.457	0.393	0.476	0.497	0.552	0.46
ESMLRYEVFGG [STOX1_Y607_YF]	0.76	0.58	3.51	1.12	0.631	0.471	0.415	0.641	0.386	0.993	0.592	0.7	1.09	1.41	0.956	1.04
